Results: patent US20260001914A1, “MACROCYCLIC PEPTIDES TARGETING KRAS” (Merck Sharp & Dohme LLC, priority 2022, published 2026)
*1 amine or outer side, *2 acyl side, *3 side chain or, on linkers, in order; H or OH if unused. Where a SMILES comes first, the peptide text is derived from it. [ ]: non-standard residue; d: D form. Ala(pyrimidin-5-yl) = N[C@@H](Cc1cncnc1)C(=O)O; Nle(5,5-F2) = CC(F)(F)CC[C@H](N)C(=O)O; Phe(2-F) = N[C@@H](Cc1ccccc1F)C(=O)O; X1 = O=C(C12CC(CN[*:1])(C1)C2)[*:2]; NMeF = CN[C@@H](Cc1ccccc1)C(=O)O; PhLac = O=C(O)[C@@H](O)Cc1ccccc1; Cba = N[C@@H](CC1CCC1)C(=O)O; NMeA = CN[C@@H](C)C(=O)O

Key:
[1] = target: KRAS-G12D in AsPC-1 cells (UniProt P01116); test: cell-based or functional assay
[2] = target: Biotin-labeled KRAS-G12D protein (UniProt P01116-2 1-169, limits assumed, biotin label (site not stated); loaded with BODIPY-GDP); test: cell-based or functional assay
[3] = target: phosphorylation levels of ERK1/2 in AsPC-1 (homozygous KRAS-G12D) cells (Homo sapiens, UniProt P01116, G12D); test: Cellular phospho-ERK assay in AsPC-1 cells (Alpha Screen), assay medium without fetal bovine serum; assay type: cell-based; conditions: phospho-ERK AlphaScreen, 18 h;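 further: signal taken as phospho-ERK over total ERK per well, both detected in one multiplex bead assay, EC50 from four-parameter logistic fit of dose-response curves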
Experimental: Assay plate was incubated at 37° C. 5% CO2 for the indicated length of time. […] Phosphorylated ERK and total ERK levels were detected by Alpha SureFire Ultra Multiplex pERK kit (PerkinElmer MPSU-PTERK) using 5 μL, acceptor bead mix and 5 μL donor bead mix, both prepared following the manufacturer's protocol. Plates were sealed using aluminum sealing tape (Costar 07-200-683) during incubation at ambient temperature with constant shaking at 300 rpm for 1 h (both acceptor and donor). Assay plates were read on a Envision Xcite Multilabel Reader (PerkinElmer 1040900) at ambient temperature, with emission at 535 nm (Total ERK) and emission at 615 nm (Phospho ERK). Ratio of pERK vs total ERK in each well was used as the final readout. Dose response curves and EC50 were analyzed using a 4-parameter logistic equation in GraphPad Prism software.

| Molecule | AlphaScreen @18 h, EC50 [1] | SOS assay EC50 [2] | EC50 [3] |
| --- | --- | --- | --- |
| cyclo(FLac-NMeA-PyrimAla-L-Phe2F-Nle-NMe3Pal-amBCP) (peptide) | > 50800 nM | 4.38 nM | – |
| cyclo(FLac-NMeA-PyrimAla-cBuA-Phe2F-hL3F-NMeF-amBCP) (peptide) | 674 nM | 1.87 nM | – |
| cyclo(Y-NMeA-3Pal-Nle-Phe2F-Nle-NMe3Pal-amBCP) (peptide) | 46400 nM | 440 nM | – |
| cyclo(FLac-NMeA-3Pal-cBuA-TyrOMe-Ahp-NMeF-amBCP) (peptide) | 886 nM | 37.9 nM | – |
| cyclo(FLac-NMeNvaF-3Pal-Nle-Phe2F-Nle-NMe3Pal-amBCP) (peptide) | 20700 nM | 297 nM | – |
| cyclo(FLac-NMeNvalmid-3Pal-Nle-Phe2F-Nle-NMe3Pal-c3amCblc) (peptide) | > 50800 nM | 758 nM | – |
| cyclo(FLac-NMeA-3Pal-Nle-Phe2F-Nle-NMe3Pal-amBCP) (peptide) | 7300 nM | 36 nM | – |
| cyclo(FLac-nMeSMe-3Pal-Nle-Phe2F-Nle-NMe3Pal-amBCP) (peptide) | > 50800 nM | 6410 nM | – |
| cyclo(F-NMeDabN3-3Pal-NleLac-Phe2F-Nle-NMe3Pal-amBCP) (peptide) | > 50800 nM | 3880 nM | – |
| cyclo(FLac-NMeA-PyrimAla-NleF-Phe2F-Nle-NMeF-amBCP) (peptide) | 2030 nM | 2.43 nM | – |
| cyclo(CPhe-NMeA-PyrimAla-cPrA-Phe2F-Nle3F2-NMeF-MeOximamBCP) isomer 1 (peptide) | 3400 nM | 51 nM | – |
| cyclo(1Nal-R-K-Nle-Phe3COOH-Nle-NMeF-Cysteamine-C1Ac) (peptide) | > 50800 nM | 2120 nM | – |
| cyclo(FLac-AlaCN-3Pal-Nle-Phe2F-Nle-NMe3Pal-amBCP) (peptide) | > 50800 nM | 3750 nM | – |
| cyclo(dF-R-Phe4Gn-Nle-TyrOMe-Nle-NMeF-c3amCblc) (peptide) | > 50800 nM | 17.3 nM | – |
| cyclo(FLac-NMeDabN3-3Pal-Nle-Phe2F-Nle-NMe3Pal-amBCP) (peptide) | 3950 nM | 87.6 nM | – |
| cyclo(4F3Pal-NMeA-3Pal-Nle-Phe2F-Nle-NMe3Pal-amBCP) (peptide) | > 50800 nM | 1780 nM | – |
| cyclo(FLac-NMeNvalmid-PyrimAla-Nle-Phe2F-Nle-NMeF-amBCP) isomer 2 (peptide) | 11100 nM | 25.3 nM | – |
| cyclo(FLac-NMeA~PyrimAla-rF2Cba-Phe2F-Nle-NMe3Pal-amBCP) isomer 2 (peptide) | > 50800 nM | 8190 nM | – |
| cyclo(FLac-NMeA-PyrimAla-Nle-Phe2F-Nle-NMeF-amBCP) (peptide) | 590 nM | 17.4 nM | – |
| cyclo(FLac-NMeA-PyrimAla-Nle-Phe2F-Nle-NMeYOMe-amBCP) (peptide) | 439 nM | 11 nM | – |
| cyclo(FLac-NMeNvalmid-4CF33Pal-Nle-Phe2F-Nle-NMeF-amBCP) isomer 2 (peptide) | > 50800 nM | 62.8 nM | – |
| cyclo(F-NMeA-3Pal-cBuA-TyrOMe-Ahp-NMeF-aMeC1-C1Ac) (peptide) | > 50800 nM | 146 nM | – |
| cyclo(FLac-NMeA-PyrimAla-Leu3F-Phe2F-hL-NMeF-amBCP) (peptide) | 7730 nM | 114 nM | – |
| cyclo(FLac-NMeS-3Pal-Nle-Phe2F-Nle-NMe3Pal-amBCP) (peptide) | > 50800 nM | 466 nM | – |
| cyclo(FLac-NMeA-PyrimAla-Nle-Phe2F-Nle-NMePhe3Me-amBCP) (peptide) | 256 nM | 6.03 nM | – |
| cyclo(FLac-NMeNvalmid-4F3Pal-Nle-Phe2F-Nle-NMeF-amBCP) isomer 2 (peptide) | > 50800 nM | 69.7 nM | – |
| cyclo(FLac-R-3Pal-cBuA-TyrOMe-Ahp-NMeF-amBCP) (peptide) | > 50800 nM | 10.8 nM | – |
| cyclo(FLac-R-3Pal-Nle-Phe2F-Nle-NMeF-amBCP) (peptide) | 39400 nM | 20.7 nM | – |
| C[C@H]1C(=O)N[C@@H](Cc2cncnc2)C(=O)N[C@@H](CC2CCC2)C(=O)N[C@@H](Cc2ccccc2F)C(=O)N[C@@H](CCC(C)(F)F)C(=O)N(C)[C@@H](Cc2ccccc2)C(=O)NCC23CC(C2)(C3)C(=O)O[C@@H](Cc2ccccc2)C(=O)N1C [compound 224, cyclo(FLac-NMcA-PyrimAla-cBuA-Phe2F-Nle3F2-NMeF-amBCP)] (cyclo([Cba][Phe(2-F)][Nle(5,5-F2)][NMeF][X1][PhLac][NMeA][Ala(pyrimidin-5-yl)])) | – | – | 542 nM |

Second part, led by results:

| AlphaScreen @18 h, EC50 [1] | SOS assay EC50 [2] | Molecule | EC50 [3] |
| --- | --- | --- | --- |
| 285 nM | 4.13 nM | cyclo(FLac-NMeA-PyrimAla-cPeA-Phe2F-hL-NMeF-amBCP) (peptide) | – |
| > 50800 nM | 375 nM | cyclo(FLac-NMeS-PyrimAla-Nle-Phe2F-Nle-NMe3Pal-amBCP) (peptide) | – |
| 50200 nM | 1450 nM | cyclo(FLac-NMeA-3Pal2F-Nle-Phe2F-Nle-NMe3Pal-amBCP) (peptide) | – |
| 330 nM | 6.47 nM | cyclo(FLac-NMeA-PyrimAla-cBuA-Phe2F-hL-NMeF-amBCP) (peptide) | – |
| > 50800 nM | 35.1 nM | cyclo(FLac-NMeA-3Pal-NvaF-Phe2F-Nle-NMe3Pal-amBCP) (peptide) | – |
| 1110 nM | 7.87 nM | cyclo(FLac-NMeA-PyrimAla-Nle-Phe2F-hL-NMeF-amBCP) (peptide) | – |
| > 50800 nM | 101 nM | cyclo(FLac-NMeNvalmid-4F3Pal-Nle-Phe2F-Nle-NMeF-amBCP) isomer 1 (peptide) | – |
| 4180 nM | 31 nM | cyclo(FLac-NMeA-PyrimAla-cPrA-3Pal2F-hL-NMeF-amBCP) (peptide) | – |
| 21000 nM | – | cyclo(F-NMeA-3Pal-Nle-Phe2F-Nle-NMeF-aMeC1-C1Ac) (peptide) | – |
| 11600 nM | 80.9 nM | cyclo(FLac-NMeDabN3-PyrimAla-Nle-Phe2F-Nle-NMe3Pal-amBCP) (peptide) | – |
| 32300 nM | 22.3 nM | cyclo(Phe3Me-NMeA-3Pal-Nle-Phe2F-Nle-NMe3Pal-amBCP) (peptide) | – |
| > 50800 nM | 313 nM | cyclo(F-NMeA~3Pal-Nle-Phe2F-Nle-NMe3Pal-amBCP) (peptide) | – |
| 542 nM | 2.39 nM | cyclo(FLac-NMeA-PyrimAla-cBuA-Phe2F-Nle3F2-NMeF-amBCP) (peptide) | – |
| 45000 nM | – | cyclo(FLac-NMeA-PyrimAla-cBuA-Phe2F-Nle-NMe3Pal-amBCP) (peptide) | – |
| 5160 nM | 28.9 nM | cyclo(FLac-NMeNvalmid-3Pal-Nle-Phe2F-Nle-NMeF-amBCP) (peptide) | – |
| 356 nM | – | cyclo(FLac-NMeA-PyrimAla-cBuA-Phe26F2-hL-NMeF-amBCP) (peptide) | – |
